Laboratory results taken from patent US20230220098A1, “THERAPEUTIC DRUG FOR POLYCYTHEMIA” (PERSEUS PROTEOMICS INC., priority 2019, published 2023).

Legend:
hamster TfR = hamster TfR (Cricetulus griseus, UniProt Q07891); test: Cross-reactivity of TfR436 antibody with hamster TfR; type: binding
[1] = molecular target: T1, soluble wild-type TfR (sTfR) and TfR mutant fragments (MF1 to MF7) (Homo sapiens, UniProt P02786); test: ELISA reactivity with soluble wild-type TfR and TfR mutant fragments (binding site identification); conditions: suggested from mutant fragment reactivity
T1 construct: A human TfR extracellular domain (the amino acids at positions 89 to 760); made in house; host or cells: Expi293 cells
Procedure: (§1) A neomycin resistance gene and a DHFR gene were incorporated into the expression vector pCAGGS (Non-Patent Document 2: Niwa et al. 1991), and thereafter, the synthesized genes were each inserted into the multicloning site of the obtained expression vector, so as to produce a pCAGGS-Neo-DHFR-sTFR-myc-his expression plasmid. Using Expifectamine (Invitrogen), the Expi293 cells (Invitrogen) were transfected with the above-described plasmid, and were then cultured at 37° C. in 8% CO2 at 135 rpm for 5 days. Thereafter, a culture supernatant was recovered by centrifugation. A HisTrapHP (GE Healthcare) column was connected with AKTA prime (GE Healthcare), and sTfR or MF1 to MF7 were then purified using 20 mM Imidazole/DPBS as a binding buffer and 500 mM Imidazole/DPBS as an elution buffer. The eluted protein was subjected to buffer exchange with 30 mM HEPES, 5% trehalose, pH 7.2, by using a Zeba spin column (Thermo scientific).
(§2) The thus purified sTfR or MF1 to MF7 were diluted with PBST (Phosphate Buffered Saline with Tween 20, TaKaRa), and the diluted solutions were prepared at 7 stages by 3-fold dilution from 600 ng/mL. […] Thereafter, the absorbance at 450 nm (ref. 620 nm) was measured using a plate reader.

[2] = tested on: soluble wild-type TfR (sTfR) and TfR mutant fragments (MF1 to MF7); test: as above; parameters: species or system human; conditions: TfR436 1 ug/mL; MF5 (positions 629, 630 and 633 substituted); FIG. 2
Procedure: as §1, §2

T1 sequence (P02786 89-760, change not shown): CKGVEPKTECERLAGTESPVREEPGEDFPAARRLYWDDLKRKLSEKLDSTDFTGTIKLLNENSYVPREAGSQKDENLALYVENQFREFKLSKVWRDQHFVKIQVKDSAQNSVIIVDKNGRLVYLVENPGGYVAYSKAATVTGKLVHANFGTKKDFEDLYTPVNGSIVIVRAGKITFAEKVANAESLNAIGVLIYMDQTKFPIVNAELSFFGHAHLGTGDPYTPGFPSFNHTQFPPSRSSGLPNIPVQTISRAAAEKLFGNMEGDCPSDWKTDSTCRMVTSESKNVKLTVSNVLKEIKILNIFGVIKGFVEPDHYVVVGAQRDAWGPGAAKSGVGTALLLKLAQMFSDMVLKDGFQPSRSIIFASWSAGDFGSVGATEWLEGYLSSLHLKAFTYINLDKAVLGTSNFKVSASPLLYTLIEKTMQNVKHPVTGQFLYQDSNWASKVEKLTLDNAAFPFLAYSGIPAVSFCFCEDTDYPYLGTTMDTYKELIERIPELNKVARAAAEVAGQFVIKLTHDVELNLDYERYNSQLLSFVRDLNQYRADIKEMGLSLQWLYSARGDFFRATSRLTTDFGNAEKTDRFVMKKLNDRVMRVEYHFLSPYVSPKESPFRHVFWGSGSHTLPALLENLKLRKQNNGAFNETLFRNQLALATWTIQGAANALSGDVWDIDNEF
Sequence of hamster TfR (Q07891 whole entry, the tested form may be a part): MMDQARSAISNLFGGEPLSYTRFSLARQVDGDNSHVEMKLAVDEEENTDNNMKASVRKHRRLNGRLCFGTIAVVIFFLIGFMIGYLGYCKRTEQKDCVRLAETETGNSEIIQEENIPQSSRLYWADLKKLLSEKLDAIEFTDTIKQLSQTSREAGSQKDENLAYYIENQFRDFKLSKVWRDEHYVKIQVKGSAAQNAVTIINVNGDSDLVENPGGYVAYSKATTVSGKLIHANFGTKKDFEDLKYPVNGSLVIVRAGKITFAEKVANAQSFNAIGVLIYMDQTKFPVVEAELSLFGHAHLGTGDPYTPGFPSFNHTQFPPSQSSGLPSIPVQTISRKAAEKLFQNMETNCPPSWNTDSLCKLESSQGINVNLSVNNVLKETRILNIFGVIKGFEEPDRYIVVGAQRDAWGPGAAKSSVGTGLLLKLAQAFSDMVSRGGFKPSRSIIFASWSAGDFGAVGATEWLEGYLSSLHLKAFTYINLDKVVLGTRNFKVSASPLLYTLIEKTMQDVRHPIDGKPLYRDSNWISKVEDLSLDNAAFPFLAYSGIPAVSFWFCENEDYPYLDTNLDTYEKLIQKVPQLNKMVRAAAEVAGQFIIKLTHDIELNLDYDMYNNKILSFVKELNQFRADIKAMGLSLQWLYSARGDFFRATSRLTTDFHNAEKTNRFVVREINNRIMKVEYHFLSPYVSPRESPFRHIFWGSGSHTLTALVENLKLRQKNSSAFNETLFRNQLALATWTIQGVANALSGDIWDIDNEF

B1: TfR436: anti-human transferrin receptor antibody, VH SEQ ID NO: 7 and VL SEQ ID NO: 8, described in WO2014/073641; called PPMX-T003 in Tables 3 and 4 (antibody, listed as Homo sapiens, V domains shown)
VH: DVQLVQSGGGVVQPGRSLRLSCAASGFPFKSYGMHWVRQAPGKGLEWVAVISYDGSNKYYADSVKGRFTISRDNSKNTLYLQMNSLRGEDTAVYYCARDSNFWSGYYSPVDVWGQGTTVTVSS
VL: NFMLTQPHSVSESPGKTVTISCTRSSGSIASNSVQWYQQRPGSAPITVIYEDTQRPSGVPDRFSGSIDSSSNSASLTISGLQTEDEADYYCQSYDSAYHWVFGGGTKLAVL
cross-reactivity with hamster TfR (hamster TfR): exhibited cross-reactivity
epitope recognized [1]: amino acids at positions 629 to 633 of TfR
reactivity with TfR mutant fragment MF5 [2]: a reduction in the reactivity
